{
  "source": "patent US11702469B2",
  "about": "“Recombinant EGFL7, EGFL7 antibodies, and uses thereof” (Ohio State Innovation Foundation, priority 2017, dated 2023)",
  "tested_on": "PARP1 and CASP3 cleavage",
  "assay": "PARP1 and Casp3 cleavage immunoblot, THP-1",
  "format": "cell-based, human",
  "details": "anti-EGFL7 treatment, western blots",
  "procedure": "FIG. 24A-24G. EGFL7 prevents activation of NOTCH signaling in AML cells. (FIG. 24A) Overview of experiments using DLL4-FC and IgG-FC control coated plates to induce NOTCH activation. (FIG. 24B) THP-1 cells were pre-treated with 10 μM γ-secretase inhibitor (AVA), 100 μg/ml anti-EGFL7 antibody or 0.25 μM rEGFL7 for 30 min, then transferred to IgG-Fc or DLL4-Fc coated plates. After 4 h of incubation total RNA from THP-1 cells was extracted for qRT-PCR analysis of HES1 with β-ACTIN as internal control. ^###P<0.001 DLL4-FC vs IgG-FC; ***P<0.001 DLL4+AVA, DLL4+rEGFL7, and DLL4+anti-EGFL7 vs DLL4-FC. […] THP-1 cells were treated with the indicated concentration of anti-EGFL7 (@E7) then assessed for apoptosis using (FIG. 24D) AnnexinV+ staining and FACS; *P<0.05 (FIG. 24E) Immuno-blotting for PARP1 and Casp3 cleavage. (FIG. 24F) Cell differentiation was assessed by CD11B and CD14 staining 96-hours post anti-EGFL7 treatments; *P<0.05. (FIG. 24G) To determine whether activation of NOTCH by DLL4-Fc could be accentuated by anti-EGFL7 treatment, THP-1 cells were first treated with anti-EGFL7 (100 μg/ml) and then cultured on DLL4-FC or IgG-Fc coated plates and then assessed for apoptosis using AnnexinV+ staining and FACS. *P<0.05 DLL4-Fc and anti-EGFL7; vs DLL4-FC+anti-EGFL7. […]",
  "data": [
    {"molecule": "Parsatuzumab: Anti-human EGFL7 therapeutic antibody (Parsatuzumab) obtained from Creative Biolabs; blocking monoclonal antibody (antibody, chains of the INN, looked up, V domains shown) VH: EVQLVESGGGLVQPGGSLRLSCAASGYTFIDYYMNWVRQAPGKGLEWVGDINLDNSGTHYNQKFKGRFTISRDKSKNTAYLQMNSLRAEDTAVYYCAREGVYHDYDDYAMDYWGQGTLVTVSS VL: DIQMTQSPSSLSASVGDRVTITCRTSQSLVHINAITYLHWYQQKPGKAPKLLIYRVSNRFSGVPSRFSGSGSGTDFTLTISSLQPEDFATYYCGQSTHVPLTFGQGTKVEIK", "values": [
      {"measurement": "PARP1 and CASP3 cleavage", "value": "increase in PARP1 and CASP3 cleavage"}
    ]}
  ]
}
